Reference: IntAct's records for PubMed 15784897

Tests used:
[1] = biological target: hck_human HCK (UniProt P08631)
[2] = biological target: lck_human LCK (UniProt P06239)
[3] = biological target: grb2_human GRB2 (UniProt P62993)
[4] = biological target: fyn_human FYN (UniProt P06241)

Measured: effect of a mutation on the interaction

Chain of fyn_human FYN (P06241 whole entry, looked up): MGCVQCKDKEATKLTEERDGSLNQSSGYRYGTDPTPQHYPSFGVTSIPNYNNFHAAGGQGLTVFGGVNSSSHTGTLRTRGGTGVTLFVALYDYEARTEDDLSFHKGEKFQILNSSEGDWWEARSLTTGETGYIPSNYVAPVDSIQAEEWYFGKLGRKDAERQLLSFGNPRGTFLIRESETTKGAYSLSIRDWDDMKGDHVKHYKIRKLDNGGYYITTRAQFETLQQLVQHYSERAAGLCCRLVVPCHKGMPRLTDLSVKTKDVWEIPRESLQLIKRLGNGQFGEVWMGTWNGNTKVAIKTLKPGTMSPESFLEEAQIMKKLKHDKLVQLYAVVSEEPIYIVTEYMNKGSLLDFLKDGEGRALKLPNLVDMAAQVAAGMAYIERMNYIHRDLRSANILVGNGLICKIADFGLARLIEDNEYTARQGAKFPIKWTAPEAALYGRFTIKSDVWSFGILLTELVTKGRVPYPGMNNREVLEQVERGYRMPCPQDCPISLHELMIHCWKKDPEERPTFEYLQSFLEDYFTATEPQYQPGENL
Chain of lck_human LCK (P06239 whole entry, looked up): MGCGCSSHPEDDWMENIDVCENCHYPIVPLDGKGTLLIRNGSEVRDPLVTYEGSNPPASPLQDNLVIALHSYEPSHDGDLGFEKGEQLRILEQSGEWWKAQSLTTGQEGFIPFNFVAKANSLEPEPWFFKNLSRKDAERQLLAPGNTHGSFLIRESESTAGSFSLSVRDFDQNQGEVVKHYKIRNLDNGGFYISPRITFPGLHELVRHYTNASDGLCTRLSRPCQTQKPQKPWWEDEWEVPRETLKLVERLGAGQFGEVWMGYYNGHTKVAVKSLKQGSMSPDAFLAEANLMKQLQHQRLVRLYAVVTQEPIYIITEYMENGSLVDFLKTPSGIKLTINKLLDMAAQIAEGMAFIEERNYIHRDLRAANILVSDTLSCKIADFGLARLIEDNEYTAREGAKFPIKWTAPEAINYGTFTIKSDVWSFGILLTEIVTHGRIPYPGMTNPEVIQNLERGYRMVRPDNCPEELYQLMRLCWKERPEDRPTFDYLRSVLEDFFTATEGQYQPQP
Chain of hck_human HCK (P08631 whole entry, looked up): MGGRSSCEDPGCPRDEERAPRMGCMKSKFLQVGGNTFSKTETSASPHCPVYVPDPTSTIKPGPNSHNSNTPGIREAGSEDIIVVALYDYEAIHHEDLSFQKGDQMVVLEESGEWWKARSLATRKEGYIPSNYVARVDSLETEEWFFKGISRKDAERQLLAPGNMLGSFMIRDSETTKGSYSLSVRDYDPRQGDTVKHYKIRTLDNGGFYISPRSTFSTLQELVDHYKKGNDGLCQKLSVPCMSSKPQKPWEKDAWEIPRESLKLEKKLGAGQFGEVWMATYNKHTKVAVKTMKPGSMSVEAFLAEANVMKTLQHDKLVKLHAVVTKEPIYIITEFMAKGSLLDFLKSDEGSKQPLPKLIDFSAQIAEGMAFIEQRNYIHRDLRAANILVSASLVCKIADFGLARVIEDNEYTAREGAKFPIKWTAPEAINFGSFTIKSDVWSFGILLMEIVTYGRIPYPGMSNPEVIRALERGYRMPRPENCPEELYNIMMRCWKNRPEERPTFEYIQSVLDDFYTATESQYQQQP

Genome polyprotein (Hepatitis C virus genotype 1b (isolate Con1) (HCV)), Q9WMX2 P2322A;P2325A;P2326A
disrupting interaction: all assays above
